Laboratory results taken from the supplement of paper PMC10065799, “High-throughput profiling of sequence recognition by tyrosine kinases and SH2 domains using bacterial peptide display” (eLife, 2023).

Tested on: AncSZ
Test: phosphorylation enrichment, bacterial display (enrichment ratio); higher = better substrate or ligand; peptides without Tyr show the background
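Also: 11-residue human phosphosite peptides and single-mutation variants displayed on the E. coli surface, counted by deep sequencing, each peptide's frequency after selection divided by its frequency in the unselected input library; frequency after pTyr selection over input frequency; kinase dosed for 20-30% of maximal phosphorylation in three min.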

Row | Sequence | phosphorylation enrichment
1 | SARFRYLMAEK [LDHB_Y173] | 0.695
2 | LLILEYAKFGS [RET_Y806_V804L_YF] | 1.34
3 | SGVNKYSTAFG [GJB3_Y16] | 0.613
4 | LERFIYNREEF [HLA-DPB1_Y59_F64Y_YF] | 1.68
5 | NSGFFYKTAEE [CCT6B_Y250] | 1.31
6 | HGEAFYSEVKP [PAK5_Y182_YF] | 1
7 | QDDTVYMGKVT [DCTN1_Y1244] | 1.96
8 | TQPSPYAVFRF [RPGRIP1_Y823_YF] | 0.952
9 | LGNIVYSSLCG [BCOR_Y90_P85L] | 2.1
10 | LHRHAYPEQRQ [DPPA2_Y127] | 0.619
11 | RLLVVYHWTQR [HBD_Y36_P37H] | 1.42
12 | RKEAQYMLENE [SLC16A6_Y224] | 1.52
13 | TGEKPYECVQC [ZNF24_Y335] | 0.755
14 | FIGVTYKNKED [PDGFRA_Y993_E996K_YF] | 0.776
15 | CTTIHYNYMCI [TP53_Y234_N239I] | 0.946
16 | TTGGFYSFGGG [KRT24_Y120_A115T_YF] | 0.623
17 | KAPVDYIRKLQ [MITF_Y360_S357P] | 0.547

Row | Sequence | phosphorylation enrichment
18 | IFCIQYNICAF [MYH4_Y820_R823C] | 1.28
19 | GGDQPYSGAGD [TYRO3_Y828_R824G] | 0.673
20 | NGEDLYAGSTD [XRCC1_Y515_P514L] | 1.17
21 | PGVNYYFQVSA | 2.15
22 | ALAHKHHGGGG [HBB_Y146_Y146H] | 0.588
23 | VEKGSYSALLA [ABCC2_Y845] | 0.648
24 | FDEFRYRSFIK [CFTR_Y517_V520F_YF] | 0.775
25 | RTEAQYRFIFM [PTPN11_Y511_Q506R_YF] | 1.37
26 | ETKTPYTVILI [SBDS_Y128_R126T] | 0.999
27 | RLVTRYIYNRE [HLA-DQB1_Y62_Y58L] | 0.697
28 | SLLTDCSPQLQ [OTC_Y345_Y345C] | 0.999
29 | SSREEYFIGGG [GYPC_Y126_K124E] | 1.05
30 | LKRCQYVTEKV [ALDOA_Y204] | 1.59
31 | PCPANYFAFKI [FAM3D_Y65] | 2.11
32 | IYHLSYIHNCE [PDE6B_Y227_L228I] | 1.3
33 | GVASDYKCVDP [VPS13B_Y1991_I1994V] | 1.05

Molecular target: EPHB1 (UniProt P54762)
Test: as above

Chain of EPHB1 (P54762 whole entry, looked up): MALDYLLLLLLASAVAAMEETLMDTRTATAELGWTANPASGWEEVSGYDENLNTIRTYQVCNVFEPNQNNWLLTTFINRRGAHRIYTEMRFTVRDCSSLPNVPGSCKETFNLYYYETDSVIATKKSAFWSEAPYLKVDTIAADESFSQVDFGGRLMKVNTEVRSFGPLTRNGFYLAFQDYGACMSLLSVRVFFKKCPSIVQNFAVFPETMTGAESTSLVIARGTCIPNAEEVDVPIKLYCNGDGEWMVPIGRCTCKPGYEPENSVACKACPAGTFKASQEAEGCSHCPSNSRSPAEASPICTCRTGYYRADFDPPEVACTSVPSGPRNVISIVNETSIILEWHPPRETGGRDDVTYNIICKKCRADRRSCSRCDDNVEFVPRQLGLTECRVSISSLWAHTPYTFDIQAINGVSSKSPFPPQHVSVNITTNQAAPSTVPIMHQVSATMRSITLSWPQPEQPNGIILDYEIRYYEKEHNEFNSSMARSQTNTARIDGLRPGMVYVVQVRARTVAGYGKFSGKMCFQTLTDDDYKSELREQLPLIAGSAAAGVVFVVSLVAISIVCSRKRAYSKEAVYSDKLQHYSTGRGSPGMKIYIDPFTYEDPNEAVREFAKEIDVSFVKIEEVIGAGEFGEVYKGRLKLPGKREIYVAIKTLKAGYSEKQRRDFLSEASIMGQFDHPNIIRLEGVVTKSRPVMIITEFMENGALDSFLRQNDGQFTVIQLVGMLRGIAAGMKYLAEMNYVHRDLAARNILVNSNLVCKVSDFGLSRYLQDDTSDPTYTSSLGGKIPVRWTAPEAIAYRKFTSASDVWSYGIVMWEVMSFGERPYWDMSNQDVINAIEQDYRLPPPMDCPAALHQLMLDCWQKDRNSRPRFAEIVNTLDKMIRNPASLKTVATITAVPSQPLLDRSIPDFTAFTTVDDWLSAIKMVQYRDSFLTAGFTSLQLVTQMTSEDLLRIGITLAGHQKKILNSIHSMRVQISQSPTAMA

Row | Sequence | phosphorylation enrichment
34 | SARFRYLMAEK [LDHB_Y173] | 0.436
35 | LLILEYAKFGS [RET_Y806_V804L_YF] | 1.49
36 | SGVNKYSTAFG [GJB3_Y16] | 0.375
37 | LERFIYNREEF [HLA-DPB1_Y59_F64Y_YF] | 0.63
38 | NSGFFYKTAEE [CCT6B_Y250] | 0.655
39 | HGEAFYSEVKP [PAK5_Y182_YF] | 2.01
40 | QDDTVYMGKVT [DCTN1_Y1244] | 0.8
41 | TQPSPYAVFRF [RPGRIP1_Y823_YF] | 2.6
42 | LGNIVYSSLCG [BCOR_Y90_P85L] | 1.47
43 | LHRHAYPEQRQ [DPPA2_Y127] | 0.434
44 | RLLVVYHWTQR [HBD_Y36_P37H] | 0.785
45 | RKEAQYMLENE [SLC16A6_Y224] | 0.605
46 | TGEKPYECVQC [ZNF24_Y335] | 0.514
47 | FIGVTYKNKED [PDGFRA_Y993_E996K_YF] | 0.422
48 | CTTIHYNYMCI [TP53_Y234_N239I] | 5.99
49 | TTGGFYSFGGG [KRT24_Y120_A115T_YF] | 0.766
50 | KAPVDYIRKLQ [MITF_Y360_S357P] | 0.416

Row | Sequence | phosphorylation enrichment
51 | IFCIQYNICAF [MYH4_Y820_R823C] | 0.686
52 | GGDQPYSGAGD [TYRO3_Y828_R824G] | 0.501
53 | NGEDLYAGSTD [XRCC1_Y515_P514L] | 0.517
54 | PGVNYYFQVSA | 1.61
55 | ALAHKHHGGGG [HBB_Y146_Y146H] | 0.372
56 | VEKGSYSALLA [ABCC2_Y845] | 0.354
57 | FDEFRYRSFIK [CFTR_Y517_V520F_YF] | 0.417
58 | RTEAQYRFIFM [PTPN11_Y511_Q506R_YF] | 0.52
59 | ETKTPYTVILI [SBDS_Y128_R126T] | 0.543
60 | RLVTRYIYNRE [HLA-DQB1_Y62_Y58L] | 0.443
61 | SLLTDCSPQLQ [OTC_Y345_Y345C] | 0.567
62 | SSREEYFIGGG [GYPC_Y126_K124E] | 0.457
63 | LKRCQYVTEKV [ALDOA_Y204] | 1.9
64 | PCPANYFAFKI [FAM3D_Y65] | 6.38
65 | IYHLSYIHNCE [PDE6B_Y227_L228I] | 0.783
66 | GVASDYKCVDP [VPS13B_Y1991_I1994V] | 0.624

Molecular target: EPHB2 (UniProt P29323)
Test: as above

Chain of EPHB2 (P29323 whole entry, looked up): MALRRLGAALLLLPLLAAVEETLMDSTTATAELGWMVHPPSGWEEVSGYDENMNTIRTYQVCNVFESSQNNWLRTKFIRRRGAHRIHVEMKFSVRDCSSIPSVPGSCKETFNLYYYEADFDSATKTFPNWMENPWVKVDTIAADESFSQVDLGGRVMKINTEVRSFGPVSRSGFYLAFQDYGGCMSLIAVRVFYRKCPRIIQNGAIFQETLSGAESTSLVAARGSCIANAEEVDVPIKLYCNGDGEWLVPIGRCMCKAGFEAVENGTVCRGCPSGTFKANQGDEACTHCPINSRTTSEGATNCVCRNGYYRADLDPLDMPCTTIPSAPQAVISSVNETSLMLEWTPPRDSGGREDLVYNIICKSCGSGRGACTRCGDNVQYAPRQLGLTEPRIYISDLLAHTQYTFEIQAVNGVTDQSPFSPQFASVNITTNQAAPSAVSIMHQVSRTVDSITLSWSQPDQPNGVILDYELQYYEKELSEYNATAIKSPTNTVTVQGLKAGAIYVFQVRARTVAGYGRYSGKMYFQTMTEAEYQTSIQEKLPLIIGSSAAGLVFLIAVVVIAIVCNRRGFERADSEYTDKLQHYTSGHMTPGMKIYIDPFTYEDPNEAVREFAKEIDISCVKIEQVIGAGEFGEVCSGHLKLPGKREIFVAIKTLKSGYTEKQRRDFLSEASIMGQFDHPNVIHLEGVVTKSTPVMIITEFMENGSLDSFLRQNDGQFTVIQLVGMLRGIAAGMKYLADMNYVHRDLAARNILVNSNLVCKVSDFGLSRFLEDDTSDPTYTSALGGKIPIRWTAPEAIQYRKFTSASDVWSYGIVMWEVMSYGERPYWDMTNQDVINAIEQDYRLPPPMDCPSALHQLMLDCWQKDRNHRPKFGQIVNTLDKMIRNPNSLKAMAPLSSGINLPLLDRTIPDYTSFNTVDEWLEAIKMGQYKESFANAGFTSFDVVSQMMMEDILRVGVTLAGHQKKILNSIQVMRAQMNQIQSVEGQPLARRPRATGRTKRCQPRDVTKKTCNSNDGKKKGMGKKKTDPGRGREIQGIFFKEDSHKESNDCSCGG

Row | Sequence | phosphorylation enrichment
67 | SARFRYLMAEK [LDHB_Y173] | 0.467
68 | LLILEYAKFGS [RET_Y806_V804L_YF] | 0.991
69 | SGVNKYSTAFG [GJB3_Y16] | 0.384
70 | LERFIYNREEF [HLA-DPB1_Y59_F64Y_YF] | 0.76
71 | NSGFFYKTAEE [CCT6B_Y250] | 0.722
72 | HGEAFYSEVKP [PAK5_Y182_YF] | 1.37
73 | QDDTVYMGKVT [DCTN1_Y1244] | 0.918
74 | TQPSPYAVFRF [RPGRIP1_Y823_YF] | 0.922
75 | LGNIVYSSLCG [BCOR_Y90_P85L] | 1.39
76 | LHRHAYPEQRQ [DPPA2_Y127] | 0.594
77 | RLLVVYHWTQR [HBD_Y36_P37H] | 0.514
78 | RKEAQYMLENE [SLC16A6_Y224] | 0.523
79 | TGEKPYECVQC [ZNF24_Y335] | 0.507
80 | FIGVTYKNKED [PDGFRA_Y993_E996K_YF] | 0.582
81 | CTTIHYNYMCI [TP53_Y234_N239I] | 2.4
82 | TTGGFYSFGGG [KRT24_Y120_A115T_YF] | 0.442
83 | KAPVDYIRKLQ [MITF_Y360_S357P] | 0.436

Row | Sequence | phosphorylation enrichment
84 | IFCIQYNICAF [MYH4_Y820_R823C] | 0.9
85 | GGDQPYSGAGD [TYRO3_Y828_R824G] | 0.481
86 | NGEDLYAGSTD [XRCC1_Y515_P514L] | 0.541
87 | PGVNYYFQVSA | 1.49
88 | ALAHKHHGGGG [HBB_Y146_Y146H] | 0.391
89 | VEKGSYSALLA [ABCC2_Y845] | 0.392
90 | FDEFRYRSFIK [CFTR_Y517_V520F_YF] | 0.39
91 | RTEAQYRFIFM [PTPN11_Y511_Q506R_YF] | 0.576
92 | ETKTPYTVILI [SBDS_Y128_R126T] | 0.637
93 | RLVTRYIYNRE [HLA-DQB1_Y62_Y58L] | 0.481
94 | SLLTDCSPQLQ [OTC_Y345_Y345C] | 0.548
95 | SSREEYFIGGG [GYPC_Y126_K124E] | 0.44
96 | LKRCQYVTEKV [ALDOA_Y204] | 0.89
97 | PCPANYFAFKI [FAM3D_Y65] | 3.72
98 | IYHLSYIHNCE [PDE6B_Y227_L228I] | 0.724
99 | GVASDYKCVDP [VPS13B_Y1991_I1994V] | 0.62

Molecular target: FGFR1 (UniProt P11362)
Test: as above

Chain of FGFR1 (P11362 whole entry, looked up): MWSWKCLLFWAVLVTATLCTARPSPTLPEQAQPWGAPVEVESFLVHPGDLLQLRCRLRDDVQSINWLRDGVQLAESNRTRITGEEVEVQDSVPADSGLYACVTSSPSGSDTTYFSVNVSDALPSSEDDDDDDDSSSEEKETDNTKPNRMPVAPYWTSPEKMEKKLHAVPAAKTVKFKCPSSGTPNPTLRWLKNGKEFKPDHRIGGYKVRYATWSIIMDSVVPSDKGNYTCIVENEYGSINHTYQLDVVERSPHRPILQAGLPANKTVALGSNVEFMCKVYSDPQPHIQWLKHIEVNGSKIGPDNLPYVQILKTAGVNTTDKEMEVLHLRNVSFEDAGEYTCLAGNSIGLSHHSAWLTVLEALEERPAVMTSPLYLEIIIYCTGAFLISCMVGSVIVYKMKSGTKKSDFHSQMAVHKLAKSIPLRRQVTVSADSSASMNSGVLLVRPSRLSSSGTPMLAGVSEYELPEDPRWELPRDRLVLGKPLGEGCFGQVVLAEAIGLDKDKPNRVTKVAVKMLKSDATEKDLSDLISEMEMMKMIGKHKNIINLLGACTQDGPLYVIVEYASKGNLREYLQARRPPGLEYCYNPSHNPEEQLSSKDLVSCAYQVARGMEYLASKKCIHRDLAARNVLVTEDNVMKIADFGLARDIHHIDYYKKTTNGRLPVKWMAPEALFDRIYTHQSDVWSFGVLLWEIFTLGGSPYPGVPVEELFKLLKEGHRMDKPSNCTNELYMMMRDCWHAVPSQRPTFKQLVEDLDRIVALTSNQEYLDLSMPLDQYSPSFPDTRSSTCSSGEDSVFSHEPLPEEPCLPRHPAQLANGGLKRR

Row | Sequence | phosphorylation enrichment
100 | SARFRYLMAEK [LDHB_Y173] | 0.352
101 | LLILEYAKFGS [RET_Y806_V804L_YF] | 0.85
102 | SGVNKYSTAFG [GJB3_Y16] | 0.4
103 | LERFIYNREEF [HLA-DPB1_Y59_F64Y_YF] | 0.632
104 | NSGFFYKTAEE [CCT6B_Y250] | 0.556
105 | HGEAFYSEVKP [PAK5_Y182_YF] | 3.57
106 | QDDTVYMGKVT [DCTN1_Y1244] | 0.789
107 | TQPSPYAVFRF [RPGRIP1_Y823_YF] | 0.893
108 | LGNIVYSSLCG [BCOR_Y90_P85L] | 1.05
109 | LHRHAYPEQRQ [DPPA2_Y127] | 0.505
110 | RLLVVYHWTQR [HBD_Y36_P37H] | 0.458
111 | RKEAQYMLENE [SLC16A6_Y224] | 0.503
112 | TGEKPYECVQC [ZNF24_Y335] | 0.501
113 | FIGVTYKNKED [PDGFRA_Y993_E996K_YF] | 0.458
114 | CTTIHYNYMCI [TP53_Y234_N239I] | 2.52
115 | TTGGFYSFGGG [KRT24_Y120_A115T_YF] | 0.46
116 | KAPVDYIRKLQ [MITF_Y360_S357P] | 0.328

Row | Sequence | phosphorylation enrichment
117 | IFCIQYNICAF [MYH4_Y820_R823C] | 0.451
118 | GGDQPYSGAGD [TYRO3_Y828_R824G] | 0.485
119 | NGEDLYAGSTD [XRCC1_Y515_P514L] | 0.489
120 | PGVNYYFQVSA | 2.98
121 | ALAHKHHGGGG [HBB_Y146_Y146H] | 0.355
122 | VEKGSYSALLA [ABCC2_Y845] | 0.401
123 | FDEFRYRSFIK [CFTR_Y517_V520F_YF] | 0.498
124 | RTEAQYRFIFM [PTPN11_Y511_Q506R_YF] | 0.512
125 | ETKTPYTVILI [SBDS_Y128_R126T] | 0.592
126 | RLVTRYIYNRE [HLA-DQB1_Y62_Y58L] | 0.86
127 | SLLTDCSPQLQ [OTC_Y345_Y345C] | 0.518
128 | SSREEYFIGGG [GYPC_Y126_K124E] | 0.562
129 | LKRCQYVTEKV [ALDOA_Y204] | 1.11
130 | PCPANYFAFKI [FAM3D_Y65] | 9.03
131 | IYHLSYIHNCE [PDE6B_Y227_L228I] | 2.65
132 | GVASDYKCVDP [VPS13B_Y1991_I1994V] | 0.533
